B1: humanized anti-CSP-1 antibody, Antibody Number 16 (Table 1) (antibody, human IgG1, V domains shown)
VH: EVQLVESGGDLVKPGGSLKLSCAASGFTFSRYGMSWVRQTPDKRLEWVATISIGGTYTYYPDSMKGRFTISRDNAKNTLYLQMSSLKSEDTAMYYCARRGYGNYSYYGMDYWGQGTSVTVSS
VL: DIVMTQAAFSNPVTLGTSASISCRSSKSLLHSNGITYLYWYLQKPGQSPQLLIYQMSNLASGVPDRFSSSGSGTDFTLRISRVEAEDVGVYYCAQNLELPLTFGAGTKLELK
notes: also called Antibody 16
B2: humanized anti-CSP-1 antibody, Antibody Number 19 (Table 1) (antibody, human IgG1, V domains shown)
VH: EVQLVESGGDLVKPGGSLKLSCAASGFTFSRYGMSWVRQTPDKRLEWVATISIGGTYTYYPDSMKGRFTISRDNAKNTLYLQMSSLKSEDTAMYYCARRGYGNYSYYGLDYWGQGTSVTVSS
VL: DIVMTQAAFSNPVTLGTSASISCRSSKSLLHSNGITYLYWYLQKPGQSPQLLIYQMSNLASGVPDRFSSSGSGTDFTLRISRVEAEDVGVYYCAQNLELPLTFGAGTKLELK
notes: also called Antibody 19
B3: humanized anti-CSP-1 antibody, Antibody Number 17 (Table 1) (antibody, human IgG1, V domains shown)
VH: EVQLVESGGDLVKPGGSLKLSCAASGFTFSRYGMSWVRQTPDKRLEWVATISIGGTYTYYPDSMKGRFTISRDNAKNTLYLQMSSLKSEDTAMYYCARRGYGSYSYYGMDYWGQGTSVTVSS
VL: DIVMTQAAFSNPVTLGTSASISCRSSKSLLHSNGITYLYWYLQKPGQSPQLLIYQMSNLASGVPDRFSSSGSGTDFTLRISRVEAEDVGVYYCAQNLELPLTFGAGTKLELK
notes: also called Antibody 17
B4: humanized anti-CSP-1 antibody, Antibody Number 20 (Table 1) (antibody, human IgG1, V domains shown)
VH: EVQLVESGGDLVKPGGSLKLSCAASGFTFSRYGMSWVRQTPDKRLEWVATISIGGTYTYYPDSMKGRFTISRDNAKNTLYLQMSSLKSEDTAMYYCARRGYGNYSYYGIDYWGQGTSVTVSS
VL: DIVMTQAAFSNPVTLGTSASISCRSSKSLLHSNGITYLYWYLQKPGQSPQLLIYQMSNLASGVPDRFSSSGSGTDFTLRISRVEAEDVGVYYCAQNLELPLTFGAGTKLELK
notes: also called Antibody 20
B5: humanized anti-CSP-1 antibody, Antibody Number 18 (Table 1) (antibody, human IgG1, V domains shown)
VH: EVQLVESGGDLVKPGGSLKLSCAASGFTFSRYGMSWVRQTPDKRLEWVATISIGGTYTYYPDSMKGRFTISRDNAKNTLYLQMSSLKSEDTAMYYCARRGYGQYSYYGMDYWGQGTSVTVSS
VL: DIVMTQAAFSNPVTLGTSASISCRSSKSLLHSNGITYLYWYLQKPGQSPQLLIYQMSNLASGVPDRFSSSGSGTDFTLRISRVEAEDVGVYYCAQNLELPLTFGAGTKLELK
notes: also called Antibody 18
B6: humanized anti-CSP-1 antibody, Antibody Number 2 (Table 1) (antibody, human IgG1, V domains shown)
VH: QIQLVQSGPELKKPGETVKISCKASGYTFTDYSMHWVKQAPGKGLKWMGWIQTETGEPTYADDFKGRFAFSLETSASTAYLQINNLKNEDTATYFCAPGGFAYWGQGTLVTVSA
VL: DIVMTQAAPSVPVTPGESVSISCRSSKSLLHSNGNTYLYWFLQRPGQSPQLLIYRMSNLASGVPDRFSGSGSGTAFTLRISRVEAEDVGVYYCMQHLEYPLTFGAGTKLELK
notes: also called Antibody 2
B7: humanized anti-CSP-1 antibody, Antibody Number 11 (Table 1) (antibody, human IgG1, V domains shown)
VH: QIQLVQSGPEVKKPGASVKISCKASGYTFTDYSMHWVKQAPGQGLKWMGWINTETGEPTYADDFKGRFTFTLDTSTSTAYLEISSLRSEDTATYFCAPGGFAYWGQGTLVTVSS
VL: DIVMTQSAPSVPVTPGQSVSISCRSSKSLLHSNGNTYLYWFLQKPGQSPQLLIYRMSNRASGVPDRFSGSGSGTDFTLKISRVEAEDVGVYYCMQHLEYPLTFGQGTKLEIK
notes: also called Antibody 11
B8: humanized anti-CSP-1 antibody, Antibody Number 15 (Table 1) (antibody, human IgG1, V domains shown)
VH: QIQLVQSGPGLKQPGGSVRISCAASGYTFTDYSMHWVKQAPGKGLKWMGWINTETGEPTYADDFKGRFTFSLDTSKSTAYLQINSLRAEDTATYFCAPGGFAYWGQGTLVTVSS
VL: DIVMTQSAPSLPVTPGQSVSISCRSSKSLLHSNGNTYLYWFLQKPGQSPQLLIYRMSNRASGVPDRFSGSGSGTDFTLKISRVEAEDVGVYYCMQHLEYPLTFGQGTKLEIK
notes: also called Antibody 15
B9: humanized anti-CSP-1 antibody, Antibody Number 4 (Table 1) (antibody, human IgG1, V domains shown)
VH: QIQLVQSGPELKKPGETVKISCKASGYTFTDYSMHWVKQAPGKGLKWMGWINTETGEPTYADDFKGRFAFSLETSASTAYLQINNLKNEDTATYFCAPGGFAYWGQGTLVTVSA
VL: DIVMTQAAPSVPVTPGESVSISCRSSKSLLHSNGNTYLYWFLQRPGQSPQLLIYRVSNLASGVPDRFSGSGSGTAFTLRISRVEAEDVGVYYCMQHLEYPLTFGAGTKLELK
notes: also called Antibody 4
B10: humanized anti-CSP-1 antibody, Antibody Number 9 (Table 1) (antibody, human IgG1, V domains shown)
VH: QIQLVQSGPELKKPGETVKISCKASGYTFTDYSMHWVKQAPGKGLKWMGWINTETGEPTYADDFKGRFAFSLETSASTAYLQINNLKNEDTATYFCAPGGFAYWGQGTLVTVSA
VL: DIVMTQSAPSVPVTPGQSVSISCRSSKSLLHSNGNTYLYWFLQKPGQSPQLLIYRMSNRASGVPDRFSGSGSGTDFTLKISRVEAEDVGVYYCMQHLEYPLTFGQGTKLEIK
notes: also called Antibody 9
B11: humanized anti-CSP-1 antibody, Antibody Number 6 (Table 1) (antibody, human IgG1, V domains shown)
VH: QIQLVQSGPELKKPGETVKISCKASGYTFTDYSMHWVKQAPGKGLKWMGWINTETGEPTYADDFKGRFAFSLETSASTAYLQINNLKNEDTATYFCAPGGFAYWGQGTLVTVSA
VL: DIVMTQAAPSVPVTPGESVSISCRSSKSLLHSNGNTYLYWFLQRPGQSPQLLIYRISNLASGVPDRFSGSGSGTAFTLRISRVEAEDVGVYYCMQHLEYPLTFGAGTKLELK
notes: also called Antibody 6
B12: humanized anti-CSP-1 antibody, Antibody Number 14 (Table 1) (antibody, human IgG1, V domains shown)
VH: QIQLVQSGPGLKQPGGSVRISCAASGYTFTDYSMHWVKQAPGKGLKWMGWINTETGEPTYADDFKGRFTFSLDTSKSTAYLQINSLRAEDTATYFCAPGGFAYWGQGTLVTVSS
VL: DIVMTQSAPSVPVTPGQSVSISCRSSKSLLHSNGNTYLYWFLQKPGQSPQLLIYRMSNRASGVPDRFSGSGSGTDFTLKISRVEAEDVGVYYCMQHLEYPLTFGQGTKLEIK
notes: also called Antibody 14
B13: humanized anti-CSP-1 antibody, Antibody Number 3 (Table 1) (antibody, human IgG1, V domains shown)
VH: QIQLVQSGPELKKPGETVKISCKASGYTFTDYSMHWVKQAPGKGLKWMGWINTETGEPTYADDFKGRFAFSLETSASTAYLQINNLKNEDTATYFCAPGGFAYWGQGTLVTVSA
VL: DIVMTQAAPSVPVTPGESVSISCRSSKSLLHSSGNTYLYWFLQRPGQSPQLLIYRMSNLASGVPDRFSGSGSGTAFTLRISRVEAEDVGVYYCMQHLEYPLTFGAGTKLELK
notes: also called Antibody 3
B14: humanized anti-CSP-1 antibody, Antibody Number 10 (Table 1) (antibody, human IgG1, V domains shown)
VH: QIQLVQSGPELKKPGETVKISCKASGYTFTDYSMHWVKQAPGKGLKWMGWINTETGEPTYADDFKGRFAFSLETSASTAYLQINNLKNEDTATYFCAPGGFAYWGQGTLVTVSA
VL: DIVMTQSAPSLPVTPGQSVSISCRSSKSLLHSNGNTYLYWFLQKPGQSPQLLIYRMSNRASGVPDRFSGSGSGTDFTLKISRVEAEDVGVYYCMQHLEYPLTFGQGTKLEIK
notes: also called Antibody 10
B15: humanized anti-CSP-1 antibody, Antibody Number 7 (Table 1) (antibody, human IgG1, V domains shown)
VH: QIQLVQSGPEVKKPGASVKISCKASGYTFTDYSMHWVKQAPGQGLKWMGWINTETGEPTYADDFKGRFTFTLDTSTSTAYLEISSLRSEDTATYFCAPGGFAYWGQGTLVTVSS
VL: DIVMTQAAPSVPVTPGESVSISCRSSKSLLHSNGNTYLYWFLQRPGQSPQLLIYRMSNLASGVPDRFSGSGSGTAFTLRISRVEAEDVGVYYCMQHLEYPLTFGAGTKLELK
notes: also called Antibody 7
B16: humanized anti-CSP-1 antibody, Antibody Number 13 (Table 1) (antibody, human IgG1, V domains shown)
VH: QIQLVQSGPEVKKPGASVKISCKASGYTFTDYSMHWVRQAPGQGLEWMGWINTETGEPTYAQKFQGRFTFTLDTSTSTAYLEISSLRSEDTAVYFCAPGGFAYWGQGTLVTVSS
VL: DIVMTQSAPSVPVTPGQSVSISCRSSKSLLHSNGNTYLYWFLQKPGQSPQLLIYRMSNRASGVPDRFSGSGSGTDFTLKISRVEAEDVGVYYCMQHLEYPLTFGQGTKLEIK
notes: also called Antibody 13
B17: humanized anti-CSP-1 antibody, Antibody Number 12 (Table 1) (antibody, human IgG1, V domains shown)
VH: QIQLVQSGPEVKKPGASVKISCKASGYTFTDYSMHWVKQAPGQGLKWMGWINTETGEPTYADDFKGRFTFTLDTSTSTAYLEISSLRSEDTATYFCAPGGFAYWGQGTLVTVSS
VL: DIVMTQSAPSLPVTPGQSVSISCRSSKSLLHSNGNTYLYWFLQKPGQSPQLLIYRMSNRASGVPDRFSGSGSGTDFTLKISRVEAEDVGVYYCMQHLEYPLTFGQGTKLEIK
notes: also called Antibody 12
B18: humanized anti-CSP-1 antibody, Antibody Number 5 (Table 1) (antibody, human IgG1, V domains shown)
VH: QIQLVQSGPELKKPGETVKISCKASGYTFTDYSMHWVKQAPGKGLKWMGWINTETGEPTYADDFKGRFAFSLETSASTAYLQINNLKNEDTATYFCAPGGFAYWGQGTLVTVSA
VL: DIVMTQAAPSVPVTPGESVSISCRSSKSLLHSNGNTYLYWFLQRPGQSPQLLIYRLSNLASGVPDRFSGSGSGTAFTLRISRVEAEDVGVYYCMQHLEYPLTFGAGTKLELK
notes: also called Antibody 5

The target in this assay is T1, Sec8-His (section 8 (Sec8), an antigenic region of CSP-1, tagged with a polyhistidine (His) tag).
T1 construct: also called Sec8-His antigen
T1 chain: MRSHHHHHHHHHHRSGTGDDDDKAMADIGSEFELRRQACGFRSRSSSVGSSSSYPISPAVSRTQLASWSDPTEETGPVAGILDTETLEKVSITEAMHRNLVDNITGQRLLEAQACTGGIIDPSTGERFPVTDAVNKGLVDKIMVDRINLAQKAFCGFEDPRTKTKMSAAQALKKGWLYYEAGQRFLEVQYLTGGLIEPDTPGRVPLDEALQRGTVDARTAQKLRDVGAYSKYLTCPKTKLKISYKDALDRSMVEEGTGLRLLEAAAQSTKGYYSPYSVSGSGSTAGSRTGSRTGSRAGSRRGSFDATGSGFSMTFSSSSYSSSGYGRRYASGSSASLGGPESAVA
The assay can be described thus: BLI (Octet), single shot: antibody on anti-human IgG tips, 24 nM Sec8-His. How it is done:
After humanization, the antibodies were tested for their capability to bind to an antigenic region of CSP-1 called section 8 (Sec8). Antigen binding was assessed by single-shot Octet analysis. Antibodies were loaded onto anti-human IgG tips, and the loaded tips were dipped into wells containing the Sec8-His antigen. Scouting experiments were used to determine ideal conditions for loading (10 minute incubation in 1 μg/mL IgG) and antigen binding (5 minute incubation in 24 nM Sec8-His, followed by a 5 minute dissociation step in buffer). Two negative controls were included with each experiment. First, a tip was loaded with irrelevant IgG dipped into 24 nM Sec8-His to control for non-specific interactions between the tip and the antigen. Next, tips loaded with humanized 1D7 variants were dipped into 24 nM GST-His to control for off-target binding of the antibody (a significant risk if a given variant is destabilized and/or exposes significant hydrophobic surface). The data from the irrelevant IgG control were subtracted from the data obtained with the […]-loaded tips. The mean and standard deviation of the signal change values for the GST-His control wells were used to calculate a threshold for positive binding (mean+3 standard deviations of the GST-His signal). Variants that were below this threshold are considered to have no specific binding to Sec8.
In general terms: In BLI a coated tip is dipped into the sample, and binding shifts an interference pattern.
Take B1: the binding result is given as “binds”.

In the case of B2, the binding result is reported as “binds”.

With B3, the binding result was “binds”.

As for B4, the binding result is “binds”.

B5: the binding result was “binds”.

On to B6, for which the binding result was “binds”.

With B7, the binding result is on record as “binds”.

B8: the binding result was “binds”.

B9: the binding result is “binds”.

Turning to B10, the binding result is recorded as “binds”.

B11: the binding result was “binds”.

B12: the binding result was “binds”.

As to B13, the binding result was “binds”.

For B14, the binding result is “binds”.

Turning to B15, the binding result is on record as “binds”.

Consider B16, for which the binding result was “binds”.

On to B17, for which the binding result is reported as “binds”.

Take B18: the binding result is on record as “binds”.

The record behind these values is patent US20250011418A1 (ZIELBIO, published 2025).
